This note sets out measurements from patent US20040214773A1 (UNIVERSITY OF CHICAGO, published 2004).

Bounds are passed on as bounds.

The target of this test is human cathepsin B (human, UniProt P07858 80-333). The experiment in a line: second-order association rate constant from continuous hydrolysis of (Z-FR)2-R110, pseudo-first order conditions, 20 nM cathepsin B, 200 or 400 nM Spi2A. The method, then:
Kinetics of cathepsin B inhibition by Spi2A. […] Briefly, 20 nM cathepsin B was added to 5 μM substrate, in presence or in absence of 200 or 400 nM (10- or 20-fold excess respectively) of Spi2A in activation buffer. Reactions were performed in 96-well microtitre plates. The final reaction volume was 200 μl. The rate of substrate hydrolysis was continuously monitored for 3 min. The dead time for the measurement (the time between the addition of the enzyme to the substrate (with or without inhibitor) and the first spectrophotometric measurement was ˜30 s.

B1: Spi2A-3xFLAG (murine serine protease inhibitor 2A with a C-terminal 3xFLAG epitope tag) (other)
chain: MAGVSPAVFGCPDVTLGRNTAVREVQENVTSVDSLTLVSSNTDFAFSLYRKLVLKNPDENVVFSPFSICTALALLSLGAKSNTLKEILEGLKFNLTETPEPDIHQGFRYLLDLLSQPGNQVQISTGSALFIEKHLQILAEFKEKARALYQAEAFTADFQQPLKATKLINDYVSNHTQGKIKELISGLKESTLMVLVNYIYFKGKWKNPFDPNDTFKSEFYLDEKRSVIVSMMKTGYLTTPYFRDEELSCTVVELKYTGNASAMFILPDQGRMQQVEASLQPETLRKWKNSLKPRMIHELRLPKFSISTDYSLEHILPELGIREVFSTHADLSAITGTKDLRVSQVVHKAVLDVAEKGTEAAAATGMAGVGCCAVFDFLEIFFNRPFLMIISDTKAHIALFMAKVTNPERSTNFPNGEGASSQRLESKRLCFGDPLCLIGQ
notes: Purified from lysates of RelA-/- MEFs transduced with retrovirus encoding Spi2A-3xFLAG (ion exchange, then anti-FLAG column); The ORF was amplified from T cell cDNA; also called FLAG-tagged Spi2A; not shown: C-terminal 3xFLAG (22 amino acids) from the 3xFLAG-CMV-14 vector
By kon is commonly meant the rate constant with which the complex forms. Read a high kon as faster complex formation. As for B1, the on-rate constant (kon) is > 1e+06 M⁻¹ s⁻¹.
